Measurements: IntAct's records for PubMed 25770211

B1: 5-hydroxytryptamine receptor 2C (Homo sapiens), P28335 (parent)
chain: MVNLRNAVHSFLVHLIGLLVWQSDISVSPVAAIVTDIFNTSDGGRFKFPDGVQNWPALSIVIIIIMTIGGNILVIMAVSMEKKLHNATNYFLMSLAIADMLVGLLVMPLSLLAILYDYVWPLPRYLCPVWISLDVLFSTASIMHLCAISLDRYVAIRNPIEHSRFNSRTKAIMKIAIVWAISIGVSVPIPVIGLRDEEKVFVNNTTCVLNDPNFVLIGSFVAFFIPLTIMVITYCLTIYVLRRQALMLLHGHTEEPPGLSLDFLKCCKRNTAEEENSANPNQDQNARRRKKKERRPRGTMQAINNERKASKVLGIVFFVFLIMWCPFFITNILSVLCEKSCNQKLMEKLLNVFVWIGYVCSGINPLVYTLFNKIYRRAFSNYLRCNYKVEKKPPVRQIPRVAATALSGRELNVNIYRHTNEPVIEKASDNEPGIEMQVENLELPVNPSSVVSERISSV
partner: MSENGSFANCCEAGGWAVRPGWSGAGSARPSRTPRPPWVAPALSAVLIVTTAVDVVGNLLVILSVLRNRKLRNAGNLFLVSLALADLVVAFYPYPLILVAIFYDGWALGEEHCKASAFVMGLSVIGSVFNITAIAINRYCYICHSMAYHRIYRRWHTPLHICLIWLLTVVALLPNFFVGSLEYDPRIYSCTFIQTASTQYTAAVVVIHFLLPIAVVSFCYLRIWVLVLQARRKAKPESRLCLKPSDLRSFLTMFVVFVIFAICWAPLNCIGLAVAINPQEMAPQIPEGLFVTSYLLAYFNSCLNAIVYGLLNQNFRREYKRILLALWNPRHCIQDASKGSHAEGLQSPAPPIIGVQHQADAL

Variants of: B1
Conditions: with mtr1b_human MTNR1B

With S138N as the variant, how does the “effect of a mutation on the interaction” value read?
The value was “with no effect”.
